From patent publication US10253109 (BLOODWORKS, dated 2019) come the findings set out here.

In assay [1] the target is T1, human Kell glycoprotein, Kp^a (KEL3) form (human, UniProt P23276 1-732).
T1 construct: whole, on cells; also called Kp^a/Kp^a RBCs
T1 sequence (looked up): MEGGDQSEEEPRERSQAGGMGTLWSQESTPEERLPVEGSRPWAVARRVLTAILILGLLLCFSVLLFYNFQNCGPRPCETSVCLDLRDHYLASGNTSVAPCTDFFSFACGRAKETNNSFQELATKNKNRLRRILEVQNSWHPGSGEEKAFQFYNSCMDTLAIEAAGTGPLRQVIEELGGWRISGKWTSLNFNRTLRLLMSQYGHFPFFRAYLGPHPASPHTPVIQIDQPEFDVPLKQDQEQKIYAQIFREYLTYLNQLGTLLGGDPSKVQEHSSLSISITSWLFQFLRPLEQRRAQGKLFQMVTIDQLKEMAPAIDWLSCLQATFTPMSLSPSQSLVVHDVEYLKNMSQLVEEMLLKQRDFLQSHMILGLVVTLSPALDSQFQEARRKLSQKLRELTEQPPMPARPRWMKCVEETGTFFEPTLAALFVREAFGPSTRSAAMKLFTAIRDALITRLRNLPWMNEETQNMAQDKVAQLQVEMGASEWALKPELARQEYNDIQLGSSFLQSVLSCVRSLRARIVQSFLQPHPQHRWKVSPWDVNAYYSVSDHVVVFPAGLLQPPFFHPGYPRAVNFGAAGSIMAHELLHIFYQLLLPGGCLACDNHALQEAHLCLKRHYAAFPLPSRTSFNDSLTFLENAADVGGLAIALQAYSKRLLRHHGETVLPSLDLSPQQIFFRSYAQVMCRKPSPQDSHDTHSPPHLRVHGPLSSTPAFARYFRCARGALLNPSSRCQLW
The assay can be described thus: flow cytometry, indirect immunofluorescence on RBCs. The protocol: (§1) The specificities of the antibodies are shown in FIGS. 7A, 7B, 8A, 8B, 9A-9C, and 10A-10I. The specificities of the antibodies were determined to be: PUMA1/2 (KEL1 or K), PUMA 3 (a common Kell epitope, PUMA 4 (KEL4 or Kp^b). Flow cytometry was utilized to test antibody specificity by indirect immunofluorescence, using the monocolonal antibodies as the primary reagent and a goat-anti-mouse antibody (conjugated to allophycocyanin) as a secondary antibody. Different target cells expressing different Kell variants were used to determine specificity. Targets included RBCs that phenotyped as homozygous for the 3 main antithetical antigens in the Kell system, K/K, k/k, Kp^b/Kp^b, Kp^a/Kp^a, Js^b/Js^b, Js^a/Js^a. Differential binding to such tarets tests specificity. In the case of PUMA ½, binding was only observed when K was present but not on k/k RBCs. In the case of PUMA 3, binding was observed on all RBCs regardless of phenotype for K/k, Kp^a/Kp^b, or Js^a/Js^b, thus indicating a common epitope outside these systems. However, PUMA 3 bound to only KELL glycoprotein transgenic murine RBCs and not wild-type murine RBCs; thus, the epitope recognized by PUMA 3 is on the KELL molecule, but not K/k, Kp^a/Kp^b, or Js^a/Js^b. For PUMA 4, binding was only observed when Kp^b was present but not on Kp^a/Kp^a RBCs.
For orientation: Flow cytometry measures light scatter and fluorescence of single cells or particles in a stream.

In assay [2] the target is T2, human Kell glycoprotein, K (KEL1) form (human, UniProt P23276 1-732).
T2 construct: whole, on cells; also called K form of the Kell glycoprotein; K/K RBCs
T2 sequence (looked up): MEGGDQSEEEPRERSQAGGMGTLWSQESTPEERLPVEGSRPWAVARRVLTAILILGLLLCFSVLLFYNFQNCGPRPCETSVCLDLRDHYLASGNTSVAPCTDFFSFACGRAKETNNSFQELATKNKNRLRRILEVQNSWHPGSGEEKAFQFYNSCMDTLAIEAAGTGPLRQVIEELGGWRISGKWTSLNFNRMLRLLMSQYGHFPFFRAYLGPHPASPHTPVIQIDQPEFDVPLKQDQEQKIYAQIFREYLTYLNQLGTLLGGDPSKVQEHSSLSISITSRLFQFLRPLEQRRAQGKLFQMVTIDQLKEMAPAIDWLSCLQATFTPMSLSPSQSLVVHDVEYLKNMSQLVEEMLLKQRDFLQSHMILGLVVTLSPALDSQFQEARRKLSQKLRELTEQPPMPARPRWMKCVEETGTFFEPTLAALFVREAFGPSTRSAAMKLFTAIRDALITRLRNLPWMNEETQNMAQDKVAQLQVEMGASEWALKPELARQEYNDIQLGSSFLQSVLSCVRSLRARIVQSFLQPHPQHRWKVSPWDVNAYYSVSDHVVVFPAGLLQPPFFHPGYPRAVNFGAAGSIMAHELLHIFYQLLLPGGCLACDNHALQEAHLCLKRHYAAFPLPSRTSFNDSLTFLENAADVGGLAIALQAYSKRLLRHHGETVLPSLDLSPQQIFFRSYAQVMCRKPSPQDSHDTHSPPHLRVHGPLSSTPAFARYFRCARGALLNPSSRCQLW
Put plainly: flow cytometry on RBCs (FIGS. 7A, 7B). The protocol:
as §1

Assay [3] deals with T3, human Kell glycoprotein transgene (KEL1, Kp^b, Js^b variants) on murine RBCs (human, UniProt P23276 1-732).
T3 construct: whole, on cells; also called KELL glycoprotein transgenic murine RBCs; KEL1+RBCs
T3 sequence (looked up): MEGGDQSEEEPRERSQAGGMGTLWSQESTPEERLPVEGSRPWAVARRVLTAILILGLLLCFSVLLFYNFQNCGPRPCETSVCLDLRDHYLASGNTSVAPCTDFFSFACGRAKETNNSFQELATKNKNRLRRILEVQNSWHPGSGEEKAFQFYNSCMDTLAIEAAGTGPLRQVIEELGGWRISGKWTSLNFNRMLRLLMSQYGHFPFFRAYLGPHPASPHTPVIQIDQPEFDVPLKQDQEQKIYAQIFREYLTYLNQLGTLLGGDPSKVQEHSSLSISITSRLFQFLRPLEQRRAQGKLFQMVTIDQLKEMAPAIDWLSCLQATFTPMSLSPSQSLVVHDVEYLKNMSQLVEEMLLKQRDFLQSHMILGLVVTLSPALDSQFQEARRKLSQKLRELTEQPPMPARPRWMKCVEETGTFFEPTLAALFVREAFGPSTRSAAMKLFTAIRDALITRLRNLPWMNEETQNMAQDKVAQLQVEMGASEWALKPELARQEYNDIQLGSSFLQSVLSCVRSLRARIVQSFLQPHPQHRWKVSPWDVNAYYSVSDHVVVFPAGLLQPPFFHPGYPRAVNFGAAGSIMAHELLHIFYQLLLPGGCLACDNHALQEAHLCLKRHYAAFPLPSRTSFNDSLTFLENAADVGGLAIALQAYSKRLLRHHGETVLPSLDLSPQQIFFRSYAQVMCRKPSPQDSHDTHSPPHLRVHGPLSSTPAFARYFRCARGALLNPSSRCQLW
Put plainly: in vivo, passive immunization of mice and transfusion of KEL1+ RBCs. The protocol:
The ability of PUMA1 to induce a HTR was tested by passive immunization of wild-type mice with PUMA1 (by intravenous tail-vein injection), followed by transfusion with murine KEL1+RBCs from KEL1 transgeneic mouse donors. Compared to a control group that got only PBS, PUMA1 caused a brisk clearance of KEL1+RBCs, after which, the surviving RBCs continued to circulate, as is typical of HTRs in both mice and also in humans (FIG. 13). Thus, PUMA1 specifically binds to KEL1 RBCs, in vivo, with sufficient activity to induce an HTR.

The target in assay [4] is T4, human Kell glycoprotein, k (KEL2) form (human, UniProt P23276 1-732).
T4 construct: also called k form; k/k RBCs
T4 sequence: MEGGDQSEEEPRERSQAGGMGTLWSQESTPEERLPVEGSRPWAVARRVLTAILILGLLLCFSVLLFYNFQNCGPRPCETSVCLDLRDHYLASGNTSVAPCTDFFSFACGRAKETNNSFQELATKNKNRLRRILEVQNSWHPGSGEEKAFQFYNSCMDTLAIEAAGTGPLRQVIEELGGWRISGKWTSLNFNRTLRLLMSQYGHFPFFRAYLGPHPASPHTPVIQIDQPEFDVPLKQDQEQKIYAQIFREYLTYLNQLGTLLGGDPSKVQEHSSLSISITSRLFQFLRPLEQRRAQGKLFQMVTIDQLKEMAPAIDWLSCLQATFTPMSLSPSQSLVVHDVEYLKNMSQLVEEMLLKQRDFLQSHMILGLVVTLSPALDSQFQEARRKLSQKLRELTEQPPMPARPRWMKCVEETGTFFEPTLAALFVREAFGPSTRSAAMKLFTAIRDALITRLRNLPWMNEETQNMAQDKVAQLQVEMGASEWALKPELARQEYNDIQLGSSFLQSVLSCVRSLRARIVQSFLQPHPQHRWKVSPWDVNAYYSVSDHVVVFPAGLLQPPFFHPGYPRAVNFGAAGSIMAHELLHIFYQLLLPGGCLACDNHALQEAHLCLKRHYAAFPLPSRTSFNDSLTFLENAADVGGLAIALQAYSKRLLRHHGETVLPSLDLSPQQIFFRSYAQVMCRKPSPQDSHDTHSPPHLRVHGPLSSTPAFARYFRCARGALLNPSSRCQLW
The assay can be described thus: flow cytometry, indirect immunofluorescence on RBCs. The protocol: as §1

The target in assay [5] is T3, human Kell glycoprotein transgene …. The assay can be described thus: flow cytometry, indirect immunofluorescence on transgenic murine RBCs. The protocol: as §1
Assay [6] has as its target T4, human Kell glycoprotein, k (KEL2) form. The assay can be described thus: flow cytometry, indirect immunofluorescence on k/k RBCs. The protocol:
as §1

Assay [7] concerns the target T2, human Kell glycoprotein, K (KEL1) form. Put plainly: flow cytometry, indirect immunofluorescence on K/K RBCs. The protocol:
as §1

B1: monoclonal antibody PUMA 4 (antibody, V domains shown)
VH: EVKLEESGGGLVQPGGSMKLSCVASGFTFSNYWMNWVRQPPEKGLEWVAEIRLNSNNYATHYAESVKGKFTISRDDSKSSVYLQMNDLRAEDTGIYYCTRNWDFAWFDSWGQGTLVTVSA
VL: DIVMTQSHKFMSTSVGDRVSITCKASQDVSTVVAWYQQKPGQSPKLLIYWASTRHTGVPDRFTGSGSGTDYTLTISSVQAEDLALYYCQQHYTTPFTFGSGTKLEIK
notes: Mouse monoclonal antibody from hybridoma
Consider B1, for which, in assay [1], the binding result is reported as “no binding”.

B2: monoclonal antibody PUMA 1 (antibody, V domains shown)
VH: EVQLQQSGPELVKPGASVKMSCKASGYTFTDYYMKWVKQSHGKSLEWIGDLNPNNGDTFYNQKFKGKATLTVDKSSSTAYIQLNSLTSEDSAVYYCAREAGSSFGSSCNYWGQGTTLTVS
VL: SVVMTQTPKFLLVSAGDRVTITCKASQTVSKDVAWYQQQPGQSPKLLIYYASNRYTGVPDRFTGSGYGTDFTFTISTVQAEDLAVYFCQQDYSSPYTFGGGTKLEIK
notes: also called PUMA 2; Puma 2
Turning to B2, the binding result in assay [2] is reported as “binds”; in assay [3] it was “binds”; in assay [4], “no binding”.

B3: monoclonal antibody PUMA 3 (antibody, V domains shown)
VH: QVQLKESGPGLLAPSQSLSITCTVSGFSLTSYGVYWVRQPPGKGLEWLGIIWGDGSTNYQSVLRSRLSITKDDSKSQVFLKLNSLQTDDTATYYCAKRGDYDVAYWGQGTLVTVSA
VL: DIVLTQSPASLAVSLGQRAIISCKASQTVSEVGTSLMHWYQQRPGQQPKLLIYRTSNLEAGVPTRFSGSGSRTDFTLNIHPVEEDDAATYYCQQSREFPWTFGGGTRLEIK
notes: as for B1
On to B3, for which the binding result in assay [5], in assay [6] and in assay [7] was “binds” throughout.
